The source of these data is patent publication US20180155451A1 (published 2018).

The chains are these.
T1: FcγRIIb extracellular domain with C-terminal His tag (human, UniProt P31994 43-217)
T1 construct: extracellular domain; expressed in FreeStyle293 cells; analyte in the Biacore assay; also called FcgRIIb; 2b; not shown: His tag at the C terminus
T1 sequence (looked up): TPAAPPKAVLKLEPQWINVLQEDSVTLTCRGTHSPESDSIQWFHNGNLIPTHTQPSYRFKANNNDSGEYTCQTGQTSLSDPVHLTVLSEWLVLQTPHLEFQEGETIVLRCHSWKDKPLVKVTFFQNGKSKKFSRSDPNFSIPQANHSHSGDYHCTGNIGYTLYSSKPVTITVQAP

B1: GpH7-B3 variant K334_01G/GpL16-k0 (antibody, human IgG1, kappa)
heavy: not shown
light: DIVMTQSPLSLPVTPGEPASISCQASESLVHSNRNTYLHWYLQKPGQSPQLLIYKVSNRFSGVPDRFSGSGSGTDFTLKISRVEAEDVGVYYCSQNTHVPPTFGQGTKVEIERTVAAPSVFIFPPSDEQLKSGTASVVCLLNNFYPREAKVQWKVDNALQSGNSQESVTEQDSKDSTYSLSSTLTLSKADYEKHKVYACEVTHQGLSSPVTKSFNRGEC
notes: homodimerized IgG1, mutation in both H chains; also called Ho Ab
B2: GpH7-B3 variant A330_20W/GpL16-k0 (antibody, human IgG1, kappa)
heavy: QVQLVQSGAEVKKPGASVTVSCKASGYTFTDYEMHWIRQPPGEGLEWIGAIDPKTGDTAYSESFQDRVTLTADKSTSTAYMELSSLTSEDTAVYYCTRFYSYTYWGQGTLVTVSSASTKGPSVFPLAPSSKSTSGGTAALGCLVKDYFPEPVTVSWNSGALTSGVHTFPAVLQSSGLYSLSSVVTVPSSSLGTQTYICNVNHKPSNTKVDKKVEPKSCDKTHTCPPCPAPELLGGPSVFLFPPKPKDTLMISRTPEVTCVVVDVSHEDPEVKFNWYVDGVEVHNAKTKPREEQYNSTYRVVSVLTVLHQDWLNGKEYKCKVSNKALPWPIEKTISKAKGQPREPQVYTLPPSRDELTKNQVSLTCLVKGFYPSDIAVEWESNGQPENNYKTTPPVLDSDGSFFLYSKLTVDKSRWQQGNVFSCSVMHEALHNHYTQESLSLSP
light: B1 light
notes: as for B1
B3: GpH7-B3 variant K326_10E/GpL16-k0 (antibody, human IgG1, kappa)
heavy: not shown
light: B1 light
notes: as for B1
B4: GpH7-B3 variant K334_09D/GpL16-k0 (antibody, human IgG1, kappa)
heavy: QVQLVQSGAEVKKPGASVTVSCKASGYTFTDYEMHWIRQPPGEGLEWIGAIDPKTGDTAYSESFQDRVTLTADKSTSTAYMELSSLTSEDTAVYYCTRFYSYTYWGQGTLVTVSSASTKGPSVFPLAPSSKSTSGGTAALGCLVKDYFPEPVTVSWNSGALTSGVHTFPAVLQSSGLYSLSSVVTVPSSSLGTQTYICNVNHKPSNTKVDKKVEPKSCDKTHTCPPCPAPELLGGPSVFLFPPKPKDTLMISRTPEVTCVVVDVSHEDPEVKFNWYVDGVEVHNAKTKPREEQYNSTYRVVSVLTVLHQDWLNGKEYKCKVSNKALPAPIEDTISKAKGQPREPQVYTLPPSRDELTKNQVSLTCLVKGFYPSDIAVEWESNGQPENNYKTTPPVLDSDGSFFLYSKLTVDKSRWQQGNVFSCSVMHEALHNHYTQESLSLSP
light: B1 light
notes: as for B1
B5: GpH7-B3 variant K326_09D/GpL16-k0 (antibody, human IgG1, kappa)
heavy: not shown
light: B1 light
notes: as for B1
B6: GpH7-B3 variant I332_19Q/GpL16-k0 (antibody, human IgG1, kappa)
heavy: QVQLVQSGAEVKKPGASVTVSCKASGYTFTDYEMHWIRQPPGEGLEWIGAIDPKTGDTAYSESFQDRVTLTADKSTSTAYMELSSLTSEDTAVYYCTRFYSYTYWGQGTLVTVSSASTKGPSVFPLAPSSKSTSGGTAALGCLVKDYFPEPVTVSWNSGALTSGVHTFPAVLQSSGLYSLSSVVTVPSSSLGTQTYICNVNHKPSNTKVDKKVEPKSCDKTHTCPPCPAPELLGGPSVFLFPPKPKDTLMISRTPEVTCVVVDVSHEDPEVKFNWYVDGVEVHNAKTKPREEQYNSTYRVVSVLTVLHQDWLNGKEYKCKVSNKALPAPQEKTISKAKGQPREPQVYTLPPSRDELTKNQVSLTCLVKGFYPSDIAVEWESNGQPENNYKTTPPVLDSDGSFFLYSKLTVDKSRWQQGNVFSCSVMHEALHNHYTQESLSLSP
light: B1 light
notes: as for B1
B7: GpH7-B3 variant K326_15Y/GpL16-k0 (antibody, human IgG1, kappa)
heavy: not shown
light: B1 light
notes: as for B1
B8: GpH7-B3 variant I336_03V/GpL16-k0 (antibody, human IgG1, kappa)
heavy: not shown
light: B1 light
notes: as for B1
B9: GpH7-B3 variant K334_10E/GpL16-k0 (antibody, human IgG1, kappa)
heavy: not shown
light: B1 light
notes: as for B1
B10: GpH7-B3 variant K334_03V/GpL16-k0 (antibody, human IgG1, kappa)
heavy: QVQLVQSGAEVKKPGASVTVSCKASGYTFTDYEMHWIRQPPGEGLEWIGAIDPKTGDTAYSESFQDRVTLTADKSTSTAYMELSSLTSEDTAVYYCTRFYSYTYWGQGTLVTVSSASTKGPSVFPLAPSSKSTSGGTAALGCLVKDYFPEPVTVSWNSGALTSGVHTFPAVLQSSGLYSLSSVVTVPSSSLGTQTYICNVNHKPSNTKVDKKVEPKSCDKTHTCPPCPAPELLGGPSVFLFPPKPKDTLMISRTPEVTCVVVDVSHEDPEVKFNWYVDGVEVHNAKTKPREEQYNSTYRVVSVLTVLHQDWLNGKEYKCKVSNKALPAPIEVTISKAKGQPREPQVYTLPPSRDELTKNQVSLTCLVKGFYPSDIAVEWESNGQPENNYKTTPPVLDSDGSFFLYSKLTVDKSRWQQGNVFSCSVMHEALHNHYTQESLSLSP
light: B1 light
notes: as for B1
B11: GpH7-B3 variant K334_02A/GpL16-k0 (antibody, human IgG1, kappa)
heavy: not shown
light: B1 light
notes: as for B1
B12: GpH7-B3 variant H268_13S/GpL16-k0 (antibody, human IgG1, kappa)
heavy: not shown
light: B1 light
notes: as for B1
B13: GpH7-B3 variant I332_09D/GpL16-k0 (antibody, human IgG1, kappa)
heavy: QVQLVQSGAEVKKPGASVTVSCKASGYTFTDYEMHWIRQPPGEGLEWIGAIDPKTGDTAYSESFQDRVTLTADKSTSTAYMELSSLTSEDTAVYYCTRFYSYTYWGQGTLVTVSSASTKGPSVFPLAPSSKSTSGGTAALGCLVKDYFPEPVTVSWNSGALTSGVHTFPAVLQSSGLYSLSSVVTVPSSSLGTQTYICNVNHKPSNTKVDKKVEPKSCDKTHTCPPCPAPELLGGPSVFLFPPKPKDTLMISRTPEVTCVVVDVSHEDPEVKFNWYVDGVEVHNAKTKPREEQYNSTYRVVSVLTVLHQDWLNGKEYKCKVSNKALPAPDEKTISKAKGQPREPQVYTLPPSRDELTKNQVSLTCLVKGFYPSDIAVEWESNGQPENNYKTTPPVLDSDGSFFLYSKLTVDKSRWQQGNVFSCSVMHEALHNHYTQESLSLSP
light: B1 light
notes: as for B1
B14: GpH7-B3 variant I332_13S/GpL16-k0 (antibody, human IgG1, kappa)
heavy: not shown
light: B1 light
notes: as for B1
B15: GpH7-B3 variant K326_07I/GpL16-k0 (antibody, human IgG1, kappa)
heavy: not shown
light: B1 light
notes: as for B1
B16: GpH7-B3 variant K326_14T/GpL16-k0 (antibody, human IgG1, kappa)
heavy: not shown
light: B1 light
notes: as for B1
B17: GpH7-B3 variant I332_14T/GpL16-k0 (antibody, human IgG1, kappa)
heavy: not shown
light: B1 light
notes: as for B1
B18: GpH7-B3 variant I332_10E/GpL16-k0 (antibody, human IgG1, kappa)
heavy: not shown
light: B1 light
notes: as for B1
B19: GpH7-B3 variant K326_06M/GpL16-k0 (antibody, human IgG1, kappa)
heavy: not shown
light: B1 light
notes: as for B1
B20: GpH7-B3 variant I332_02A/GpL16-k0 (antibody, human IgG1, kappa)
heavy: not shown
light: B1 light
notes: as for B1
B21: GpH7-B3 variant K334_04F/GpL16-k0 (antibody, human IgG1, kappa)
heavy: not shown
light: B1 light
notes: as for B1
B22: GpH7-B3 variant K334_14T/GpL16-k0 (antibody, human IgG1, kappa)
heavy: not shown
light: B1 light
notes: as for B1
B23: GpH7-B3 variant K334_05P/GpL16-k0 (antibody, human IgG1, kappa)
heavy: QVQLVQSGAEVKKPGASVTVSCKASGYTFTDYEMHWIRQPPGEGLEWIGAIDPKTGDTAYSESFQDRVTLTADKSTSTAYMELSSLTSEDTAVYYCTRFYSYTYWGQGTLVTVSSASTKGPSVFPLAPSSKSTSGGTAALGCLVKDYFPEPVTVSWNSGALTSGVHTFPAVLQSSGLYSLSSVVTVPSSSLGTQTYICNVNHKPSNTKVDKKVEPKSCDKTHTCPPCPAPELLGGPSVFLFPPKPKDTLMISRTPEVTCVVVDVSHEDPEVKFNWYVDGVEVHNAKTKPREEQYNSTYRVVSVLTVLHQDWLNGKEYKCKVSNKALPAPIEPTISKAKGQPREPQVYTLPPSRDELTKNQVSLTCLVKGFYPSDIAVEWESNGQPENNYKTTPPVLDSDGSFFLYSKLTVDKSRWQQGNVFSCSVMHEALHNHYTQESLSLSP
light: B1 light
notes: as for B1
B24: GpH7-B3 variant A330_04F/GpL16-k0 (antibody, human IgG1, kappa)
heavy: not shown
light: B1 light
notes: as for B1
B25: GpH7-B3 variant I336_13S/GpL16-k0 (antibody, human IgG1, kappa)
heavy: not shown
light: B1 light
notes: as for B1
B26: GpH7-B3 variant I336_02A/GpL16-k0 (antibody, human IgG1, kappa)
heavy: not shown
light: B1 light
notes: as for B1
B27: GpH7-B3 variant I336_09D/GpL16-k0 (antibody, human IgG1, kappa)
heavy: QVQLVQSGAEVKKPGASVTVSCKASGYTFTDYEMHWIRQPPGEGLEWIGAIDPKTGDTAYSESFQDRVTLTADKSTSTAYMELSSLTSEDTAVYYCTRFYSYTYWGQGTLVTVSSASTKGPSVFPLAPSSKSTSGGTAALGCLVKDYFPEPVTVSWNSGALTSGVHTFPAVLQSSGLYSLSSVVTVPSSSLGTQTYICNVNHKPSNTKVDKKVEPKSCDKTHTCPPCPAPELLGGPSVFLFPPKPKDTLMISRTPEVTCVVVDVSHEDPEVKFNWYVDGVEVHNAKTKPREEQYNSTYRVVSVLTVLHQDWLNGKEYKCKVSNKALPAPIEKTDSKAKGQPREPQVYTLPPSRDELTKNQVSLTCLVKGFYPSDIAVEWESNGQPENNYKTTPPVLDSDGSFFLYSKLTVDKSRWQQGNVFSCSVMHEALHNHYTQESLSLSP
light: B1 light
notes: as for B1
B28: GpH7-B3 variant K326_19Q/GpL16-k0 (antibody, human IgG1, kappa)
heavy: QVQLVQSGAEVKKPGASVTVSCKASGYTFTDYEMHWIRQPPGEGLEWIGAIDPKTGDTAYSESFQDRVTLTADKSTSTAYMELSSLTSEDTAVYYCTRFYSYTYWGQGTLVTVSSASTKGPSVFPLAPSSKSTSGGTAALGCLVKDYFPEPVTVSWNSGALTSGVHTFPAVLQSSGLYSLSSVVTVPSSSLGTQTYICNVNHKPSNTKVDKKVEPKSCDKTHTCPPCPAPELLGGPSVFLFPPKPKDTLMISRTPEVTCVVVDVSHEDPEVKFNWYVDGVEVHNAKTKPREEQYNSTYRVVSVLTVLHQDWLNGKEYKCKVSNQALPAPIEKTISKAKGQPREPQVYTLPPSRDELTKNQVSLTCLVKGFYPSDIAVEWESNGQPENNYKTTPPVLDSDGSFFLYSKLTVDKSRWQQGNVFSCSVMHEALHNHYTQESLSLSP
light: B1 light
notes: as for B1
B29: GpH7-B3 variant I336_06M/GpL16-k0 (antibody, human IgG1, kappa)
heavy: not shown
light: B1 light
notes: as for B1
B30: GpH7-B3 variant A330_08L/GpL16-k0 (antibody, human IgG1, kappa)
heavy: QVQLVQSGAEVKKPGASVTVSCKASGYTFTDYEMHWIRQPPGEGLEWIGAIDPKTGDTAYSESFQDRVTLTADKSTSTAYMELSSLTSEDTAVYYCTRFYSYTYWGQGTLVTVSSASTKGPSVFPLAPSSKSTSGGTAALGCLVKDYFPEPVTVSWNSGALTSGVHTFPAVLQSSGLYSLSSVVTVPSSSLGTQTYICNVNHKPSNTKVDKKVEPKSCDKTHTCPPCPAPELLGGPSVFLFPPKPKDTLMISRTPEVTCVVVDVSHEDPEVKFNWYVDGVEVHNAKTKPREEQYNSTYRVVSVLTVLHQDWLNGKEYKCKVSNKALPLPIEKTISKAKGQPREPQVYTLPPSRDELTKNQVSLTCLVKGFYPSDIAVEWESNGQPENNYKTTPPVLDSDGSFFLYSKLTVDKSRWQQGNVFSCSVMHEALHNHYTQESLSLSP
light: B1 light
notes: as for B1
B31: GpH7-B3 variant I332_15Y/GpL16-k0 (antibody, human IgG1, kappa)
heavy: not shown
light: B1 light
notes: as for B1
B32: GpH7-B3 variant I332_01G/GpL16-k0 (antibody, human IgG1, kappa)
heavy: not shown
light: B1 light
notes: as for B1
B33: GpH7-B3 variant H268_09D/GpL16-k0 (antibody, human IgG1, kappa)
heavy: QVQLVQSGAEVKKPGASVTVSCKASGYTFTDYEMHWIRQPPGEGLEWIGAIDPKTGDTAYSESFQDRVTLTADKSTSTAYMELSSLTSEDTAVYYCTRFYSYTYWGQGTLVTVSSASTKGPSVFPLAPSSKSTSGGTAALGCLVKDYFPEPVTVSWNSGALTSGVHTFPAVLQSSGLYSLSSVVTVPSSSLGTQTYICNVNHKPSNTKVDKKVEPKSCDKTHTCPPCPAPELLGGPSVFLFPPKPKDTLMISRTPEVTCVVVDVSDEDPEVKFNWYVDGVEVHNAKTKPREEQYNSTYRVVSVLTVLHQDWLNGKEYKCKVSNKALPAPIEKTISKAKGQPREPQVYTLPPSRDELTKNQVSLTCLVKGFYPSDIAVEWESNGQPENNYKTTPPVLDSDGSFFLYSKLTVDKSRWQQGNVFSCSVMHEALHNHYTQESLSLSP
light: B1 light
notes: as for B1
B34: GpH7-B3 variant I336_18N/GpL16-k0 (antibody, human IgG1, kappa)
heavy: not shown
light: B1 light
notes: as for B1
B35: GpH7-B3 variant H268_10E/GpL16-k0 (antibody, human IgG1, kappa)
heavy: not shown
light: B1 light
notes: as for B1
B36: GpH7-B3 variant K326_08L/GpL16-k0 (antibody, human IgG1, kappa)
heavy: not shown
light: B1 light
notes: as for B1
B37: GpH7-B3 variant K334_07I/GpL16-k0 (antibody, human IgG1, kappa)
heavy: not shown
light: B1 light
notes: as for B1
B38: GpH7-B3 variant K334_13S/GpL16-k0 (antibody, human IgG1, kappa)
heavy: not shown
light: B1 light
notes: as for B1
B39: GpH7-B3 variant K334_08L/GpL16-k0 (antibody, human IgG1, kappa)
heavy: not shown
light: B1 light
notes: as for B1
B40: GpH7-B3 variant K326_04F/GpL16-k0 (antibody, human IgG1, kappa)
heavy: not shown
light: B1 light
notes: as for B1
B41: GpH7-B3 variant I336_10E/GpL16-k0 (antibody, human IgG1, kappa)
heavy: not shown
light: B1 light
notes: as for B1
B42: GpH7-B3 variant K326_03V/GpL16-k0 (antibody, human IgG1, kappa)
heavy: not shown
light: B1 light
notes: as for B1
B43: GpH7-B3 variant I336_14T/GpL16-k0 (antibody, human IgG1, kappa)
heavy: not shown
light: B1 light
notes: as for B1
B44: GpH7-B3 variant E333_16H/GpL16-k0 (antibody, human IgG1, kappa)
heavy: not shown
light: B1 light
notes: as for B1
B45: GpH7-A5/GpH7-B3 variant S267_06M/GpL16-k0 (antibody, human IgG1, kappa)
heavy 1: not shown
heavy 2: not shown
light: B1 light
notes: heterodimerized; mutation in the B3 H chain only; also called He Ab S267_06M
B46: GpH7-A5/GpH7-B3 variant T335_07I/GpL16-k0 (antibody, human IgG1, kappa)
heavy 1: not shown
heavy 2: not shown
light: B1 light
notes: heterodimerized; mutation in the B3 H chain only; also called He Ab T335_07I
B47: GpH7-A5/GpH7-B3 variant S324_06M/GpL16-k0 (antibody, human IgG1, kappa)
heavy 1: not shown
heavy 2: not shown
light: B1 light
notes: heterodimerized; mutation in the B3 H chain only; also called He Ab S324_06M
B48: GpH7-A5/GpH7-B3 variant T335_15Y/GpL16-k0 (antibody, human IgG1, kappa)
heavy 1: not shown
heavy 2: not shown
light: B1 light
notes: heterodimerized; mutation in the B3 H chain only; also called He Ab T335_15Y
B49: GpH7-A5/GpH7-B3 variant S337_16H/GpL16-k0 (antibody, human IgG1, kappa)
heavy 1: not shown
heavy 2: not shown
light: B1 light
notes: heterodimerized; mutation in the B3 H chain only; also called He Ab S337_16H
B50: GpH7-A5/GpH7-B3 variant T335_10E/GpL16-k0 (antibody, human IgG1, kappa)
heavy 1: not shown
heavy 2: not shown
light: B1 light
notes: heterodimerized; mutation in the B3 H chain only; also called He Ab T335_10E
B51: GpH7-A5/GpH7-B3 variant S267_19Q/GpL16-k0 (antibody, human IgG1, kappa)
heavy 1: not shown
heavy 2: not shown
light: B1 light
notes: heterodimerized; mutation in the B3 H chain only; also called He Ab S267_19Q
B52: GpH7-A5/GpH7-B3 variant Y296_20W/GpL16-k0 (antibody, human IgG1, kappa)
heavy 1: not shown
heavy 2: not shown
light: B1 light
notes: heterodimerized; mutation in the B3 H chain only; also called He Ab Y296_20W
B53: GpH7-A5/GpH7-B3 variant V266_06M/GpL16-k0 (antibody, human IgG1, kappa)
heavy 1: not shown
heavy 2: not shown
light: B1 light
notes: heterodimerized; mutation in the B3 H chain only; also called He Ab V266_06M

T2 sequence (P08637 17-208): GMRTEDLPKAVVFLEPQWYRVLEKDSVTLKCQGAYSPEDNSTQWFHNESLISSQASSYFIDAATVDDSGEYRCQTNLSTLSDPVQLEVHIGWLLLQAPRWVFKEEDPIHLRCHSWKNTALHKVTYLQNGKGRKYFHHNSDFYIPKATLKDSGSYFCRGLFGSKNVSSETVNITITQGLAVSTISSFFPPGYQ

One experiment addresses T2, FcγRIIIa extracellular domain with C-terminal His tag (human, UniProt P08637 17-208).
T2 construct: extracellular domain; also called FcgRIIIa; 3a
The experiment can be described thus: SPR, relative to GpH7-B3/GpL16-k0. (In general: In SPR one partner is held on a chip, and binding of the other changes the refractive index at the surface.)
As for B1, the Ho/Con_3a is 104 % of control (=100).

As for B2, the Ho/Con_3a was 118 % of control (=100).

Consider B3, for which the Ho/Con_3a was 157 % of control (=100).

Take B4: the Ho/Con_3a was 150 % of control (=100).

As for B5, the Ho/Con_3a is 163 % of control (=100).

For B6, the Ho/Con_3a was 118 % of control (=100).

As to B7, the Ho/Con_3a is 115 % of control (=100).

In the case of B8, the Ho/Con_3a was 110 % of control (=100).

For B9, the Ho/Con_3a is 206 % of control (=100).

For the molecule B10, the Ho/Con_3a was 170 % of control (=100).

For B11, the Ho/Con_3a is 154 % of control (=100).

As for B12, the Ho/Con_3a is 130 % of control (=100).

Consider B13, for which the Ho/Con_3a was 255 % of control (=100).

As for B14, the Ho/Con_3a was 112 % of control (=100).

Take B15: the Ho/Con_3a is 134 % of control (=100).

B16: the Ho/Con_3a was 147 % of control (=100).

B17: the Ho/Con_3a was 138 % of control (=100).

On to B18, for which the Ho/Con_3a was 278 % of control (=100).

B19: the Ho/Con_3a is 129 % of control (=100).

Consider B20, for which the Ho/Con_3a is 114 % of control (=100).

Take B21: the Ho/Con_3a was 168 % of control (=100).

Consider B22, for which the Ho/Con_3a is 163 % of control (=100).

Take B23: the Ho/Con_3a was 165 % of control (=100).

As to B24, the Ho/Con_3a was 174 % of control (=100).

Take B25: the Ho/Con_3a was 119 % of control (=100).

In the case of B26, the Ho/Con_3a is 104 % of control (=100).

Take B27: the Ho/Con_3a is 111 % of control (=100).

With B28, the Ho/Con_3a was 118 % of control (=100).

Regarding B29, the Ho/Con_3a was 107 % of control (=100).

As for B30, the Ho/Con_3a is 138 % of control (=100).

On to B31, for which the Ho/Con_3a is 106 % of control (=100).

Turning to B32, the Ho/Con_3a was 104 % of control (=100).

Regarding B33, the Ho/Con_3a is 220 % of control (=100).

For the molecule B34, the Ho/Con_3a was 101 % of control (=100).

For the molecule B35, the Ho/Con_3a is 2060 % of control (=100).

In the case of B36, the Ho/Con_3a is 114 % of control (=100).

Take B37: the Ho/Con_3a was 180 % of control (=100).

For B38, the Ho/Con_3a is 153 % of control (=100).

B39: the Ho/Con_3a is 178 % of control (=100).

On to B40, for which the Ho/Con_3a is 103 % of control (=100).

As for B41, the Ho/Con_3a is 130 % of control (=100).

For B42, the Ho/Con_3a is 137 % of control (=100).

Regarding B43, the Ho/Con_3a was 123 % of control (=100).

As for B44, the Ho/Con_3a is 111 % of control (=100).

Another experiment addresses T1, FcγRIIb extracellular domain with …. The experiment can be described thus: SPR (Biacore), captured antibody, FcγRIIb analyte; binding relative to GpH7-A5/GpH7-B3/GpL16-k0 = 100.
On to B45, for which the He/Con_2b is 210 % of control.

As for B46, the He/Con_2b is 106 % of control.

Turning to B47, the He/Con_2b is 112 % of control.

As to B48, the He/Con_2b was 108 % of control.

In the case of B49, the He/Con_2b is 105 % of control.

In the case of B50, the He/Con_2b was 108 % of control.

Take B51: the He/Con_2b is 218 % of control.

For B52, the He/Con_2b is 103 % of control.

Regarding B53, the He/Con_2b is 251 % of control.
